B1: Mycobacterium tuberculosis Ku L251A (natural protein)
chain: MRAIWTGSIAFGLVNVPVKVYSATADHDIRFHQVHAKDNGRIRYKRVCEACGEVVDYRDLARAYESGDGQMVAITDDDIASLPEERSREIEVLEFVPAADVDPMMFDRSYFLEPDSKSSKSYVLLAKTLAETDRMAIVHFTLRNKTRLAALRVKDFGKREVMMVHTLLWPDEIRDPDFPVLDQKVEIKPAELKMAGQVVDSMADDFNPDRYHDTYQEQLQELIDTKLEGGQAFTAEDQPRLLDEPEDVSDALAKLEASVKARSKANSNVPTPP
B2: Mycobacterium tuberculosis Ku R262A (natural protein)
chain: MRAIWTGSIAFGLVNVPVKVYSATADHDIRFHQVHAKDNGRIRYKRVCEACGEVVDYRDLARAYESGDGQMVAITDDDIASLPEERSREIEVLEFVPAADVDPMMFDRSYFLEPDSKSSKSYVLLAKTLAETDRMAIVHFTLRNKTRLAALRVKDFGKREVMMVHTLLWPDEIRDPDFPVLDQKVEIKPAELKMAGQVVDSMADDFNPDRYHDTYQEQLQELIDTKLEGGQAFTAEDQPRLLDEPEDVSDLLAKLEASVKAASKANSNVPTPP
B3: Mycobacterium tuberculosis Ku D250A (natural protein)
chain: MRAIWTGSIAFGLVNVPVKVYSATADHDIRFHQVHAKDNGRIRYKRVCEACGEVVDYRDLARAYESGDGQMVAITDDDIASLPEERSREIEVLEFVPAADVDPMMFDRSYFLEPDSKSSKSYVLLAKTLAETDRMAIVHFTLRNKTRLAALRVKDFGKREVMMVHTLLWPDEIRDPDFPVLDQKVEIKPAELKMAGQVVDSMADDFNPDRYHDTYQEQLQELIDTKLEGGQAFTAEDQPRLLDEPEDVSALLAKLEASVKARSKANSNVPTPP
B4: Ku D250A (M. tuberculosis) (natural protein)
chain: MRAIWTGSIAFGLVNVPVKVYSATADHDIRFHQVHAKDNGRIRYKRVCEACGEVVDYRDLARAYESGDGQMVAITDDDIASLPEERSREIEVLEFVPAADVDPMMFDRSYFLEPDSKSSKSYVLLAKTLAETDRMAIVHFTLRNKTRLAALRVKDFGKREVMMVHTLLWPDEIRDPDFPVLDQKVEIKPAELKMAGQVVDSMADDFNPDRYHDTYQEQLQELIDTKLEGGQAFTAEDQPRLLDEPEDVSALLAKLEASVKARSKANSNVPTPP
modifications: biotinylated with NHS-LC-Biotin for BLI only
B5: Mycobacterium tuberculosis Ku D247A (natural protein)
chain: MRAIWTGSIAFGLVNVPVKVYSATADHDIRFHQVHAKDNGRIRYKRVCEACGEVVDYRDLARAYESGDGQMVAITDDDIASLPEERSREIEVLEFVPAADVDPMMFDRSYFLEPDSKSSKSYVLLAKTLAETDRMAIVHFTLRNKTRLAALRVKDFGKREVMMVHTLLWPDEIRDPDFPVLDQKVEIKPAELKMAGQVVDSMADDFNPDRYHDTYQEQLQELIDTKLEGGQAFTAEDQPRLLDEPEAVSDLLAKLEASVKARSKANSNVPTPP
notes: The theoretical MW of 33.7 kDa equals that of KuWT
B6: Ku S258A (M. tuberculosis) (natural protein)
chain: MRAIWTGSIAFGLVNVPVKVYSATADHDIRFHQVHAKDNGRIRYKRVCEACGEVVDYRDLARAYESGDGQMVAITDDDIASLPEERSREIEVLEFVPAADVDPMMFDRSYFLEPDSKSSKSYVLLAKTLAETDRMAIVHFTLRNKTRLAALRVKDFGKREVMMVHTLLWPDEIRDPDFPVLDQKVEIKPAELKMAGQVVDSMADDFNPDRYHDTYQEQLQELIDTKLEGGQAFTAEDQPRLLDEPEDVSDLLAKLEAAVKARSKANSNVPTPP
modifications: biotinylated with NHS-LC-Biotin for BLI only
B7: Mycobacterium tuberculosis Ku S258A (natural protein)
chain: MRAIWTGSIAFGLVNVPVKVYSATADHDIRFHQVHAKDNGRIRYKRVCEACGEVVDYRDLARAYESGDGQMVAITDDDIASLPEERSREIEVLEFVPAADVDPMMFDRSYFLEPDSKSSKSYVLLAKTLAETDRMAIVHFTLRNKTRLAALRVKDFGKREVMMVHTLLWPDEIRDPDFPVLDQKVEIKPAELKMAGQVVDSMADDFNPDRYHDTYQEQLQELIDTKLEGGQAFTAEDQPRLLDEPEDVSDLLAKLEAAVKARSKANSNVPTPP
B8: Ku L251A (M. tuberculosis) (natural protein)
chain: MRAIWTGSIAFGLVNVPVKVYSATADHDIRFHQVHAKDNGRIRYKRVCEACGEVVDYRDLARAYESGDGQMVAITDDDIASLPEERSREIEVLEFVPAADVDPMMFDRSYFLEPDSKSSKSYVLLAKTLAETDRMAIVHFTLRNKTRLAALRVKDFGKREVMMVHTLLWPDEIRDPDFPVLDQKVEIKPAELKMAGQVVDSMADDFNPDRYHDTYQEQLQELIDTKLEGGQAFTAEDQPRLLDEPEDVSDALAKLEASVKARSKANSNVPTPP
modifications: biotinylated with NHS-LC-Biotin for BLI only
B9: wildtype Ku (KuWT), Mycobacterium tuberculosis (natural protein)
chain: MRAIWTGSIAFGLVNVPVKVYSATADHDIRFHQVHAKDNGRIRYKRVCEACGEVVDYRDLARAYESGDGQMVAITDDDIASLPEERSREIEVLEFVPAADVDPMMFDRSYFLEPDSKSSKSYVLLAKTLAETDRMAIVHFTLRNKTRLAALRVKDFGKREVMMVHTLLWPDEIRDPDFPVLDQKVEIKPAELKMAGQVVDSMADDFNPDRYHDTYQEQLQELIDTKLEGGQAFTAEDQPRLLDEPEDVSDLLAKLEASVKARSKANSNVPTPP
modifications: biotinylated at multiple sites with NHS-LC-Biotin for BLI only (sites listed in Supplementary Table S3)
notes: The His tag is TEV-cleavable; Homodimer by SEC-MALS
B10: Ku D247A (M. tuberculosis) (natural protein)
chain: MRAIWTGSIAFGLVNVPVKVYSATADHDIRFHQVHAKDNGRIRYKRVCEACGEVVDYRDLARAYESGDGQMVAITDDDIASLPEERSREIEVLEFVPAADVDPMMFDRSYFLEPDSKSSKSYVLLAKTLAETDRMAIVHFTLRNKTRLAALRVKDFGKREVMMVHTLLWPDEIRDPDFPVLDQKVEIKPAELKMAGQVVDSMADDFNPDRYHDTYQEQLQELIDTKLEGGQAFTAEDQPRLLDEPEAVSDLLAKLEASVKARSKANSNVPTPP
modifications: biotinylated with NHS-LC-Biotin for BLI only
B11: Ku R262A (M. tuberculosis) (natural protein)
chain: MRAIWTGSIAFGLVNVPVKVYSATADHDIRFHQVHAKDNGRIRYKRVCEACGEVVDYRDLARAYESGDGQMVAITDDDIASLPEERSREIEVLEFVPAADVDPMMFDRSYFLEPDSKSSKSYVLLAKTLAETDRMAIVHFTLRNKTRLAALRVKDFGKREVMMVHTLLWPDEIRDPDFPVLDQKVEIKPAELKMAGQVVDSMADDFNPDRYHDTYQEQLQELIDTKLEGGQAFTAEDQPRLLDEPEDVSDLLAKLEASVKAASKANSNVPTPP
modifications: biotinylated with NHS-LC-Biotin for BLI only

Assays:
[1] = biological target: wildtype Ku (KuWT), Mycobacterium tuberculosis (M. tuberculosis) (UniProt P9WKD9); test: BLI; Octet RED96, 37°C, 1000 rpm; biotinylated Ku (25 ug/ml) loaded on streptavidin biosensors; LigD, LIG or POL as analyte (12.5 ug/ml), 300 s association, 300 s dissociation; 1x kinetics buffer (0.1% BSA, 0.02% Tween-20, 0.05% sodium azide in PBS); grouped global fit
[2] = biological target: Mycobacterium tuberculosis Kucore (entire C-terminus removed) (M. tuberculosis) (UniProt P9WKD9); test: BLI; biotinylated Ku protein (25 ug/ml) loaded on streptavidin biosensors as ligand; 12.5 ug/ml LIG or POL as analyte; 37 C, 1000 rpm; 1x kinetics buffer (0.1% BSA, 0.02% Tween-20, 0.05% sodium azide in PBS); association 300 s, dissociation 300 s; grouped global fit; n = 4 technical replicates
[3] = biological target: Mycobacterium tuberculosis Kumin (extended C-terminus removed) (M. tuberculosis) (UniProt P9WKD9); test: as above
[4] = biological target: the molecule itself; test: SEC-MALS; 50 uM protein; 50 mM HEPES pH 8.0, 1 mM EDTA, 200 mM NaCl; Superdex 200 Increase 10/300 GL
[5] = biological target: the molecule itself; test: SEC-MALS; 50 uM protein in 50 mM HEPES pH 8.0, 1 mM EDTA, 200 mM NaCl; Superdex 200 Increase 10/300 GL; MiniDAWN and Optilab
[6] = biological target: T1, LigD (wildtype), Mycobacterium tuberculosis (M. tuberculosis, UniProt P9WNV3 1-759); test: BLI; Octet RED96, 37°C, 1000 rpm; biotinylated Ku (25 ug/ml) loaded on streptavidin biosensors; LigD, LIG or POL as analyte (12.5 ug/ml), 300 s association, 300 s dissociation; 1x kinetics buffer (0.1% BSA, 0.02% Tween-20, 0.05% sodium azide in PBS); grouped global fit; details: both partners purified
T1 construct: The His tag is TEV-cleavable; also called wildtype LigD
T1 sequence (P9WNV3 whole entry): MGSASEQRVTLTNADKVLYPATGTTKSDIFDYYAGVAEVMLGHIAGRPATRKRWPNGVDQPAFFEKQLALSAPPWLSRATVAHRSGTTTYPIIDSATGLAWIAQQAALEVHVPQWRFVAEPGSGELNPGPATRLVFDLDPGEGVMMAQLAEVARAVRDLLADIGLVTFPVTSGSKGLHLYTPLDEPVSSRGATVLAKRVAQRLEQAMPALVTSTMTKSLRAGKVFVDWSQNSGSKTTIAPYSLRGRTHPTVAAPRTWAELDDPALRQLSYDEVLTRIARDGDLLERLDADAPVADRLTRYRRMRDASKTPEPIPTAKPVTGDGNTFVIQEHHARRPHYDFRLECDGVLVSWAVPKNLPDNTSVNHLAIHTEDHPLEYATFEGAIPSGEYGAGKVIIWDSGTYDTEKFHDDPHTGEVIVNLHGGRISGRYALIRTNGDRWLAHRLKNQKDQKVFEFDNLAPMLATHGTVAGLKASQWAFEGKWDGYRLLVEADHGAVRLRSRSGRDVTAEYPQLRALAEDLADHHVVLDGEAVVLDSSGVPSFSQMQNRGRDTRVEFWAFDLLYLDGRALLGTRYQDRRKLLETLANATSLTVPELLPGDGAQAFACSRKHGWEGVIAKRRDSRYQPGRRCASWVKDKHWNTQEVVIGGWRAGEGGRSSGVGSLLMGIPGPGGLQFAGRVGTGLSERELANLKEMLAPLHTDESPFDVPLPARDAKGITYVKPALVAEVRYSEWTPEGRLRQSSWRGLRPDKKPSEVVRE

| Molecule | stoichiometry N [4] | stoichiometry N [5] | Kd [6] [nM] | also measured |
| --- | --- | --- | --- | --- |
| LigD ligase domain (LIG), Mycobacterium tuberculosis (domain or fragment) |  |  |  | Kd [1]: 81.4 nM |
| polymerase domain of Mycobacterium tuberculosis LigD (domain or fragment) |  |  |  | Kd [2]: 291 nM; Kd [3]: 774 nM |
| ligase domain of Mycobacterium tuberculosis LigD (domain or fragment) |  |  |  | Kd [2]: 274 nM; Kd [3]: 571 nM |
| LigD polymerase domain (POL), Mycobacterium tuberculosis (domain or fragment) |  |  |  | Kd [1]: 52.7 nM |
| B1 | 2 |  |  |  |
| B2 | 2 |  |  |  |
| B3 | 2 |  |  |  |
| B4 |  | 2 | 219 |  |
| B5 | 2 |  |  |  |
| B6 |  | 2 | 258 |  |
| B7 | 2 |  |  |  |
| B8 |  | 2 | 134 |  |
| B9 |  | 2 | 196 |  |
| B10 |  | 2 | 189 |  |
| B11 |  | 2 | 125 |  |
